In patent US9637764B2, “Methods of producing 7-carbon chemicals via carbon chain elongation associated with cyclohexane carboxylate synthesis” (INVISTA North America S.á r.l., priority 2012, dated 2017):

How the values were obtained:
Assay type in all cases: biochemical
[1] = ω-transaminase activity assay, reverse direction (7-aminoheptanoate to pimelate semialdehyde), L-alanine formation by RP-HPLC; details: cell free extract, 10 mM 7-aminoheptanoate, 10 mM pyruvate, pH=7.5, 25° C., 4 h; against the empty vector control; FIG. 15
Protocol: (§1) A sequence encoding an N-terminal His-tag was added to the genes from Chromobacterium violaceum, Pseudomonas syringae, Rhodobacter sphaeroides, and Vibrio Fluvialis encoding the ω-transaminases of SEQ ID NOs: 8, 10, 11 and 13, respectively (see FIGS. 7F and 7G) such that N-terminal HIS tagged ω-transaminases could be produced. Each of the resulting modified genes was cloned into a pET21a expression vector under control of the T7 promoter and each expression vector was transformed into a BL21[DE3] E. coli host. The resulting recombinant E. coli strains were cultivated at 37° C. in a 250 mL shake flask culture containing 50 mL LB media and antibiotic selection pressure, with shaking at 230 rpm. Each culture was induced overnight at 16° C. using 1 mM IPTG.
(§2) The pellet from each induced shake flask culture was harvested via centrifugation. Each pellet was resuspended and lysed via sonication. The cell debris was separated from the supernatant via centrifugation and the cell free extract was used immediately in enzyme activity assays.
Enzyme activity assays in the reverse direction (i.e., 7-aminoheptanoate to pimelate semialdehyde) were performed in a buffer composed of a final concentration of 50 mM HEPES buffer (pH=7.5), 10 mM 7-aminoheptanoate, 10 mM pyruvate and 100 μM pyridoxyl 5′ phosphate. Each enzyme activity assay reaction was initiated by adding cell free extract of the ω-transaminase gene product or the empty vector control to the assay buffer containing the 7-aminoheptanoate and incubated at 25° C. for 4 h, with shaking at 250 rpm. The formation of L-alanine from pyruvate was quantified via RP-HPLC.

[2] = ω-transaminase activity assay, forward direction (pimelate semialdehyde to 7-aminoheptanoate), pyruvate formation by RP-HPLC; details: for ω-transaminase activity for converting pimelate semialdehyde to 7-aminoheptanoate: cell free extract, 10 mM pimelate semialdehyde, 10 mM L-alanine, pH=7.5, 25° C., 4 h, against the empty vector control, FIG. 16; for ω-transaminase accepts pimelate semialdehyde and synthesizes 7-aminoheptanoate, concluded from the reversibility of the activity: conclusion from confirmed reversibility
Protocol: as §1, §2
Enzyme activity in the forward direction (i.e., pimelate semialdehyde to 7-aminoheptanoate) was confirmed for the transaminases of SEQ ID NO 10, SEQ ID NO 11 and SEQ ID NO 13. Enzyme activity assays were performed in a buffer composed of a final concentration of 50 mM HEPES buffer (pH=7.5), 10 mM pimelate semialdehyde, 10 mM L-alanine and 100 μM pyridoxyl 5′ phosphate. Each enzyme activity assay reaction was initiated by adding a cell free extract of the ω-transaminase gene product or the empty vector control to the assay buffer containing the pimelate semialdehyde and incubated at 25° C. for 4 h, with shaking at 250 rpm. The formation of pyruvate was quantified via RP-HPLC.

[3] = ω-transaminase activity assay, 7-aminoheptanol to 7-oxoheptanol, L-alanine formation by RP-HPLC; details: for ω-transaminase activity for converting 7-aminoheptanol to 7-oxoheptanol: cell free extract, 10 mM 7-aminoheptanol, 10 mM pyruvate, pH=7.5, 25° C., 4 h, against the empty vector control, FIG. 19; for ω-transaminase accepts 7-oxoheptanol and forms 7-aminoheptanol, concluded from reversibility: conclusion given the reversibility of the ω-transaminase activity (Example 2)
Protocol: A nucleotide sequence encoding an N-terminal His-tag was added to the Chromobacterium violaceum, Pseudomonas syringae and Rhodobacter sphaeroides genes encoding the ω-transaminases of SEQ ID NOs: 8, 10 and 11, respectively (see FIGS. 7F and 7G) such that N-terminal HIS tagged ω-transaminases could be produced. The modified genes were cloned into a pET21a expression vector under the T7 promoter. Each expression vector was transformed into a BL21[DE3] E. coli host. Each resulting recombinant E. coli strain were cultivated at 37° C. in a 250 mL shake flask culture containing 50 mL LB media and antibiotic selection pressure, with shaking at 230 rpm. Each culture was induced overnight at 16° C. using 1 mM IPTG.
as §2
Enzyme activity assays in the reverse direction (i.e., 7-aminoheptanol to 7-oxoheptanol) were performed in a buffer composed of a final concentration of 50 mM HEPES buffer (pH=7.5), 10 mM 7-aminoheptanol, 10 mM pyruvate, and 100 μM pyridoxyl 5′ phosphate. Each enzyme activity assay reaction was initiated by adding cell free extract of the ω-transaminase gene product or the empty vector control to the assay buffer containing the 7-aminoheptanol and then incubated at 25° C. for 4 h, with shaking at 250 rpm. The formation of L-alanine was quantified via RP-HPLC.

[4] = Carboxylate reductase activity assay, N7-acetyl-7-aminoheptanoate to N7-acetyl-7-aminoheptanal (NADPH consumption, absorbance at 340 nm); details: purified enzyme enhanced by the gene product of sfp, 2 mM N7-acetyl-7-aminoheptanoate, 1 mM ATP, 1 mM NADPH, pH=7.5, room temperature, 20 min; against the empty vector control; FIG. 12
Protocol: The activity of each of the N-terminal His-tagged carboxylate reductases of SEQ ID NOs: 3, 6, and 7 (see Examples 4, and FIGS. 7B, 7E, and 7F) for converting N7-acetyl-7-aminoheptanoate to N7-acetyl-7-aminoheptanal was assayed in triplicate in a buffer composed of a final concentration of 50 mM HEPES buffer (pH=7.5), 2 mM N7-acetyl-7-aminoheptanoate, 10 mM MgCl2, 1 mM ATP, and 1 mM NADPH. The assays were initiated by adding purified carboxylate reductase and phosphopantetheine transferase or the empty vector control to the assay buffer containing the N7-acetyl-7-aminoheptanoate then incubated at room temperature for 20 min. The consumption of NADPH was monitored by absorbance at 340 nm.

## SEQ ID NO 11: Rhodobacter sphaeroides ω-transaminase, Genbank Accession No. ABA81135.1
[1]
  ω-transaminase activity for converting 7-aminoheptanoate to pimelate semialdehyde: accepted 7-aminoheptanote as substrate
[2]
  ω-transaminase activity for converting pimelate semialdehyde to 7-aminoheptanoate: accepted pimelate semialdehyde as substrate
  ω-transaminase accepts pimelate semialdehyde and synthesizes 7-aminoheptanoate, concluded from the reversibility of the activity: accepted pimelate semialdehyde as substrate and synthesized 7-aminoheptanoate
[3]
  ω-transaminase activity for converting 7-aminoheptanol to 7-oxoheptanol: accepted 7-aminoheptanol as substrate
  ω-transaminase accepts 7-oxoheptanol and forms 7-aminoheptanol, concluded from reversibility: accept 7-oxoheptanol as substrate

B1: SEQ ID NO 13: Vibrio fluvialis ω-transaminase, Genbank Accession No. AEA39183.1 (protein, listed as Vibrio fluvialis)
chain: MNKPQSWEARAETYSLYGFTDMPSLHQRGTVVVTHGEGPYIVDVNGRRYLDANSGLWNMVAGFDHKGLIDAAKAQYERFPGYHAFFGRMSDQTVMLSEKLVEVSPFDSGRVFYTNSGSEANDTMVKMLWFLHAAEGKPQKRKILTRWNAYHGVTAVSASMTGKPYNSVFGLPLPGFVHLTCPHYWRYGEEGETEEQFVARLARELEETIQREGADTIAGFFAEPVMGAGGVIPPAKGYFQAILPILRKYDIPVISDEVICGFGRTGNTWGCVTYDFTPDAIISSKNLTAGFFPMGAVILGPELSKRLETAIEAIEEFPHGFTASGHPVGCAIALKAIDVVMNEGLAENVRRLAPRFEERLKHIAERPNIGEYRGIGFMWALEAVKDKASKTPFDGNLSVSERIANTCTDLGLICRPLGQSVVLCPPFILTEAQMDEMFDKLEKALDKVFAEVA
[1]
  ω-transaminase activity for converting 7-aminoheptanoate to pimelate semialdehyde: accepted 7-aminoheptanote as substrate
[2]
  ω-transaminase activity for converting pimelate semialdehyde to 7-aminoheptanoate: accepted pimelate semialdehyde as substrate
  ω-transaminase accepts pimelate semialdehyde and synthesizes 7-aminoheptanoate, concluded from the reversibility of the activity: accepted pimelate semialdehyde as substrate and synthesized 7-aminoheptanoate

B2: SEQ ID NO 8: Chromobacterium violaceum ω-transaminase, Genbank Accession No. AAQ59697.1 (protein, listed as Chromobacterium violaceum)
chain: MQKQRTTSQWRELDAAHHLHPFTDTASLNQAGARVMTRGEGVYLWDSEGNKIIDGMAGLWCVNVGYGRKDFAEAARRQMEELPFYNTFFKTTHPAVVELSSLLAEVTPAGFDRVFYTNSGSESVDTMIRMVRRYWDVQGKPEKKTLIGRWNGYHGSTIGGASLGGMKYMHEQGDLPIPGMAHIEQPWWYKHGKDMTPDEFGVVAARWLEEKILEIGADKVAAFVGEPIQGAGGVIVPPATYWPEIERICRKYDVLLVADEVICGFGRTGEWFGHQHFGFQPDLFTAAKGLSSGYLPIGAVFVGKRVAEGLIAGGDFNHGFTYSGHPVCAAVAHANVAALRDEGIVQRVKDDIGPYMQKRWRETFSRFEHVDDVRGVGMVQAFTLVKNKAKRELFPDFGEIGTLCRDIFFRNNLIMRACGDHIVSAPPLVMTRAEVDEMLAVAERCLEEFEQTLKARGLA
[1]
  ω-transaminase activity for converting 7-aminoheptanoate to pimelate semialdehyde: accepted 7-aminoheptanote as substrate
[2]
  ω-transaminase accepts pimelate semialdehyde and synthesizes 7-aminoheptanoate, concluded from the reversibility of the activity: accepted pimelate semialdehyde as substrate and synthesized 7-aminoheptanoate
[3]
  ω-transaminase activity for converting 7-aminoheptanol to 7-oxoheptanol: accepted 7-aminoheptanol as substrate
  ω-transaminase accepts 7-oxoheptanol and forms 7-aminoheptanol, concluded from reversibility: accept 7-oxoheptanol as substrate

B3: SEQ ID NO 3: Mycobacterium smegmatis carboxylate reductase, Genbank Accession No. ABK71854.1 (protein, listed as Mycobacterium smegmatis)
chain: MTSDVHDATDGVTETALDDEQSTRRIAELYATDPEFAAAAPLPAVVDAAHKPGLRLAEILQTLFTGYGDRPALGYRARELATDEGGRTVTRLLPRFDTLTYAQVWSRVQAVAAALRHNFAQPIYPGDAVATIGFASPDYLTLDLVCAYLGLVSVPLQHNAPVSRLAPILAEVEPRILTVSAEYLDLAVESVRDVNSVSQLVVFDHHPEVDDHRDALARAREQLAGKGIAVTTLDAIADEGAGLPAEPIYTADHDQRLAMILYTSGSTGAPKGAMYTEAMVARLWTMSFITGDPTPVINVNFMPLNHLGGRIPISTAVQNGGTSYFVPESDMSTLFEDLALVRPTELGLVPRVADMLYQHHLATVDRLVTQGADELTAEKQAGAELREQVLGGRVITGFVSTAPLAAEMRAFLDITLGAHIVDGYGLTETGAVTRDGVIVRPPVIDYKLIDVPELGYFSTDKPYPRGELLVRSQTLTPGYYKRPEVTASVFDRDGYYHTGDVMAETAPDHLVYVDRRNNVLKLAQGEFVAVANLEAVFSGAALVRQIFVYGNSERSFLLAVVVPTPEALEQYDPAALKAALADSLQRTARDAELQSYEVPADFIVETEPFSAANGLLSGVGKLLRPNLKDRYGQRLEQMYADIAATQANQLRELRRAAATQPVIDTLTQAAATILGTGSEVASDAHFTDLGGDSLSALTLSNLLSDFFGFEVPVGTIVNPATNLAQLAQHIEAQRTAGDRRPSFTTVHGADATEIRASELTLDKFIDAETLRAAPGLPKVTTEPRTVLLSGANGWLGRFLTLQWLERLAPVGGTLITIVRGRDDAAARARLTQAYDTDPELSRRFAELADRHLRVVAGDIGDPNLGLTPEIWHRLAAEVDLVVHPAALVNHVLPYRQLFGPNVVGTAEVIKLALTERIKPVTYLSTVSVAMGIPDFEEDGDIRTVSPVRPLDGGYANGYGNSKWAGEVLLREAHDLCGLPVATFRSDMILAHPRYRGQVNVPDMFTRLLLSLLITGVAPRSFYIGDGERPRAHYPGLTVDFVAEAVTTLGAQQREGYVSYDVMNPHDDGISLDVFVDWLIRAGHPIDRVDDYDDWVRRFETALTALPEKRRAQTVLPLLHAFRAPQAPLRGAPEPTEVFHAAVRTAKVGPGDIPHLDEALIDKYIRDLREFGLI
[4]
  carboxylate reductase activity for converting N7-acetyl-7-aminoheptanoate to N7-acetyl-7-aminoheptanal: accepted N7-acetyl-7-aminoheptanoate as substrate

B4: SEQ ID NO 10: Pseudomonas syringae ω-transaminase, Genbank Accession No. AAY39893.1 (protein, listed as Pseudomonas syringae)
chain: MSANNPQTLEWQALSSEHHLAPFSDYKQLKEKGPRIITRAEGVYLWDSEGNKILDGMSGLWCVAIGYGREELADAASKQMRELPYYNLFFQTAHPPVLELAKAISDIAPEGMNHVFFTGSGSEGNDTMLRMVRHYWALKGQPNKKTIISRVNGYHGSTVAGASLGGMTYMHEQGDLPIPGVVHIPQPYWFGEGGDMTPDEFGIWAAEQLEKKILELGVENVGAFIAEPIQGAGGVIVPPDSYWPKIKEILSRYDILFAADEVICGFGRTSEWFGSDFYGLRPDMMTIAKGLTSGYVPMGGLIVRDEIVAVLNEGGDFNHGFTYSGHPVAAAVALENIRILREEKIVERVRSETAPYLQKRLRELSDHPLVGEVRGVGLLGAIELVKDKTTRERYTDKGAGMICRTFCFDNGLIMRAVGDTMIIAPPLVISFAQIDELVEKARTCLDLTLAVLQG
[1]
  ω-transaminase activity for converting 7-aminoheptanoate to pimelate semialdehyde: accepted 7-aminoheptanote as substrate
[2]
  ω-transaminase activity for converting pimelate semialdehyde to 7-aminoheptanoate: accepted pimelate semialdehyde as substrate
  ω-transaminase accepts pimelate semialdehyde and synthesizes 7-aminoheptanoate, concluded from the reversibility of the activity: accepted pimelate semialdehyde as substrate and synthesized 7-aminoheptanoate
[3]
  ω-transaminase activity for converting 7-aminoheptanol to 7-oxoheptanol: accepted 7-aminoheptanol as substrate
  ω-transaminase accepts 7-oxoheptanol and forms 7-aminoheptanol, concluded from reversibility: accept 7-oxoheptanol as substrate
